From paper PMC5007355

Key:
[1] = system: Fur (ferric uptake regulator) (Helicobacter pylori (strain G27?)); assay: DNase I footprinting (protection); settings: Footprinting: 15 fmol probe in 50 ul, 300 ng salmon sperm DNA, room temperature, 150 uM Fe2+ or dipyridyl, competitive buffer 20 mM HEPES pH 7.85, 50 mM KCl, 0.
[2] = system: Fur (ferric uptake regulator) (Helicobacter pylori (strain G27?)); assay: DNase I footprinting (full protection); settings: apo (150 uM 2,2'-dipyridyl); site fOPII; Footprinting: 15 fmol probe in 50 ul, 300 ng salmon sperm DNA, room temperature, 150 uM Fe2+ or dipyridyl; competitive buffer 20 mM HEPES pH 7.85, 50 mM KCl, 0.

ParsR wild-type footprinting probe gave a binding signal ([1]; apo (150 uM 2,2'-dipyridyl), site fOPI) of 75 nM, a binding signal ([1]; holo (150 uM Fe2+), site fOPI) of 12 nM and a binding signal ([1]; holo (150 uM Fe2+), site fOPIII (low affinity)) of 125 nM. It also gave a binding signal [2] of 30 nM.
